The source of these data is patent US8632989B1, “Mutant insulin degrading enzyme and methods of use” (University of Kentucky Research Foundation, priority 2011, dated 2014).

Series [1] concerns Saccharomyces cerevisiae. The experiment in a line: IDE activity assay in yeast, spot halo assay for a-factor production. In kind it is cell-based. The settings on record: spot halo assay on RC757 lawn. The protocol:
(§1) Panel A depicts immunoblot of yeast-expressed IDE and IDE^K898A,K899A,S901A. Equivalent percentage amounts of total cellular extracts from yeast containing an empty expression vector or plasmids encoding IDE or the IDE^K898A,K899A,S901A mutant were analyzed by SDS-PAGE and immunoblotting using an IDE-specific antibody. […] An excess of MATa yeast were mixed with decreasing numbers of MATa cells deficient for Axl1p and Step 23p that were transformed with either an empty expression vector or a vector encoding IDE or IDE^K898A,K899A,S901A as indicated. Mating, which leads to colony growth, is dependent on production of mature a-factor pheromone by plasmid-encoded IDE. […] Concentrated samples of a-factor recovered from yeast bearing the indicated expression vector were spotted at the indicated dilutions on a lawn of RC757 MATa cells, which undergo growth arrest upon exposure to a-factor pheromone. […]
(§2) The assays take advantage of the ability of IDE, in lieu of the yeast M16 metallopeptidases Axl1p and Step 23p, to participate in the proteolytic maturation of yeast a-factor mating pheromone. […] Growth of diploid colonies, indicative of mating, was scored 3 days after incubation of plates at 30° C. […] Results of mating tests and halo assays were recorded by scanning plates with a Microtek flatbed scanner and importing digitized images into Photoshop and PowerPoint.

Series [2] deals with Saccharomyces cerevisiae. The experiment in a line: IDE activity assay in yeast, serial dilution mating test. In kind it is cell-based. The settings on record: MATa cells deficient for Axl1p and Ste23p, plasmid-encoded IDE. The protocol: as §1, §2
Series [3] in a line: Fluorescence measurements of TNP-ATP binding, wild type rIDE and distal site mutants. The following applies: hyperbolic one site binding fit, 20 °C. As for the experimental part:
The fluorescence increase on binding of (2,4,6-trinitrophenyl)ATP (TNP-ATP) is plotted for the indicated IDE constructs as a function of ligand concentration. Data were fit to a hyperbolic one site binding mechanism.
Fluorescence emission spectra of 10 μM TNP-ATP in […] Tris-HCl, pH7.4, was measured in the presence of 1.5 μM of each wild type IDE and the indicated IDE distal mutants. Fluorescence spectra were recorded with a λexc=403 nm on a Perkin-Elmer LS55 Luminescence Spectrometer.
Fluorescence measurements of TNP-ATP binding were performed on a Perkin-Elmer LS55 Luminescence Spectrometer. Titrations were monitored at an excitation wavelength of 403 nm and emission wavelength of 547 nm. The temperature of the sample was maintained at 20±0.1° C. by circulating thermostatically controlled water through the cuvette holder. Assays were conducted in 200 μL reaction mixtures containing 50 mM Tris-HCl, pH, 7.4, 10 μM Abz-[…]-EDDnp (SEQ ID NO:3) as substrate, and 0.5 μg wild type rIDE, 2.3 μg rIDE-V3605, 2.0 μg rIDE-I3745 or 1.62 μg rIDEY609F and the indicated concentration of ATP. The fluorescence of TNP-ATP was subtracted from the total fluorescence of enzyme+TNP-ATP to yield specific fluorescence enhancement (ΔF).

Series [4] can be described thus: ATPase activity, Pi release with acid-molybdate. The settings on record: 1 mM ATP as substrate. In kind it is biochemical. The protocol:
(§3) IDE activity was determined by measuring the increase in fluorescence that occurs when the enzyme cleaves the internally quenched fluorogenic substrate Abz-[…]-EDDnp (SEQ ID NO:3) at the R—K bond (Song et al., Journal of Biologial Chemistry 276, 1152-1155 (2001)). The reaction was followed on a SpectraMax Gemini XS fluorescence plate reader using an excitation and emission wavelengths of 318 nm and 419 nm, respectively. Initial velocities were determined using SoftMax Pro 4.0 and kinetic constants calculated using GraphPad Prism 4.0. ATPase activity was measured by following Pi release with acid-molybdate as described by Harder et al. (Harder et al., Biochemical Journal 298 (Pt 2), 395-401 (1994)).

For a further series, the system named is Abz-GGFLRKHGQ-EDDnp. The experiment in a line: Enzyme activity assay, kinetics of IDE and ATP binding site mutants with fluorogenic substrate. Type of series: biochemical. The settings on record: rat IDE, Abz-GGFLRKHGQ-EDDnp as substrate. As for the experimental part:
Reactions were conducted in 50 mM Tris-HCl, pH 7.4.
as §3

B1: IDE: Native rat insulin degrading enzyme (SEQ ID NO:1), expressed as hexahistidine fusion protein in Sf9 insect cells (protein, listed as Rattus norvegicus)
chain: MRNGLVWLLHPALPSTLHSILGARPPPVKRLCGFPKQIYSTMNNPAIQRIEDHIVKSPEDKREYRGLELANGIKVLLISDPTTDKSSAALDVHIGSLSDPPNIPGLSHFCEHMLFLGTKKYPKENEYSQFLSEHAGSSNAFTSGEHTNYYFDVSHEHLEGALDRFAQFFLCPLFDASCKDREVNAVDSEHEKNVMNDAWRLFQLEKATGNPKHPFSKFGTGNKYTLETRPNQEGIDVREELLKFHSTYYSSNLMAICVLGRESLDDLTNLVVKLFSEVENKNVPLPEFPEHPFQEEHLKQLYKIVPIKDIRNLYVTFPIPDLQQYYKSNPGHYLGHLIGHEGPGSLLSELKSKGWVNTLVGGQKEGARGFMFFIINVDLTEEGLLHVEDIILHMFQYIQKLRAEGPQEWVFQECKDLNAVAFRFKDKERPRGYTSKIAGKLHYYPLNGVLTAEYLLEEFRPDLIDMVLDKLRPENVRVAIVSKSFEGKTDRTEQWYGTQYKQEAIPEDVIQKWQNADLNGKFKLPTKNEFIPTNFEILALEKDATPYPALIKDTAMSKLWFKQDDKFFLPKACLNFEFFSPFAYVDPLHCNMAYLYLELLKDSLNEYAYAAELAGLSYDLQNTIYGMYLSVKGYNDKQPILLKKITEKMATFEIDKKRFEIIKEAYMRSLNNFRAEQPHQHAMYYLRLLMTEVAWTKDELKEALDDVTLPRLKAFIPQLLSRLHIEALLHGNITKQAALGVMQMVEDTLIEHAHTKPLLPSQLVRYREVQLPDRGWFVYQRRNEVHNNCGIEIYYQTDMQSTSENMFLELFCQIISEPCFNTLRTKEQLGYIVFSGPRRANGIQGLRFIIQSEKPPHYLESRVEAFLITMEKAIEDMTEEAFQKHIQALAIRRLDKPKKLSAECAKYWGEIISQQYNYDRDNIEVAYLKTLSKDDIIKFYKEMLAVDAPRRHKVSVHVLAREMDSCPVVGEFPSQNDINLSEAPPLPQPEVIHNMTEFKRGLPLFPLVKPHINFMAAKL
modifications: hexahistidine tag; wild-type Insulin Degrading Enzyme (IDE) from rat
Usually Kd stands for the constant that tells how readily two partners part at equilibrium. Low readings indicate tighter binding, high ones weaker binding. Broadly, the Hill coefficient is a measure of the steepness of the concentration-response curve. One may read the Km as the concentration of substrate that gives half-maximal velocity. In general, kcat refers to the number of substrate molecules converted per active site and unit of time at saturation. A word on the Vmax: it is the rate approached at saturating substrate. Turning to B1, in the series with Saccharomyces cerevisiae [1], the “production of a-factor by yeast” value is “greater production of a-factor”. Moreover, in the series with Saccharomyces cerevisiae [2], the “mating promoted in yeast” value is given as “promoted mating to a greater extent”. Further, the Kd in series [3] came out at 1 ± 0.1 µM. Also, the “IDE-dependent ATPase activity” value in series [4] is reported as “less than 1 nmol/min/mg IDE”. For the same molecule, in the series with Abz-GGFLRKHGQ-EDDnp, the “Hill coefficient” value came to 2.1 ± 0.3, the Km was 9.6 ± 0.7 mM and the kcat was 0.0867 ± 0.0033 s⁻¹. In addition, the Vmax in the series on Abz-GGFLRKHGQ-EDDnp (50 mM Tris-HCl, pH 7.4) came to 47.2 ± 1.7 nmol/min/mg.
